In publication PMC3835959 (Cell reports, 2013):
Numbering of substitutions follows the chain as printed. Names and notes keep the numbering of the source.

B1: CesAB–EspA heterodimeric chaperone–substrate complex (complex)
chain 1: MSIVSQTRNKELLDKKIRSEIEAIKKIIAEFDVVKESVNELSEKAKTDPQAAEKLNKLIEGYTYGEERKLYDSALSKIEKLIETLSPARSKSQSTMNQRNRNNRKIV
chain 2: MDTSTTASVASANASTSTSMAYDLGSMSKDDVIDLFNKLGVFQAAILMFAYMYQAQSDLSIAKFADMNEASKESTTAQKMANLVDAKIADVQSSSDKNAKAQLPDEVISYINDPRNDITISGIDNINAQLGAGDLQTVKAAISAKANNLTTTVNNSQLEIQQMSNTLNLLTSARSDMQSLQYRTISGISLGK
B2: CesAB^Y64A/R68A–EspA complex (complex)
chain 1: B1 chain 1 with Y64A, R68A
chain 2: B1 chain 2
B3: EscN ATPase, full-length, hexameric (enzyme)
chain: MISEHDSVLEKYPRIQKVLNSTVPALSLNSSTRYEGKIINIGGTIIKARLPKARIGAFYKIEPSQRLAEVIAIDEDEVFLLPFEHVSGMYCGQWLSYQGDEFKIRVGDALLGRLIDGIGRPMESNIVAPYLPFERSLYAEPPDPLLRQVIDQPFILGVRAIDGLLTCGIGQRIGIFAGSGVGKSTLLGMICNGASADIIVLALIGERGREVNEFLALLPQSTLSKCVLVVTTSDRPALERMKAAFTATTIAEYFRDQGKNVLLMMDSVTRYARAARDVGLASGEPDVRGGFPPSVFSSLPKLLERAGPAPKGSITAIYTVLLESDNVNDPIGDEVRSILDGHIVLTRELAEENHFPAIDIGLSASRVMHNVVTSEHLRAAAECKKLIATYKNVELLIRIGEYTMGQDPEADKAIKNRKLIQNFIQQSTKDISSYEKTIESLFKVVA

Legend:
[1] = target: B3; test: NMR titration
[2] = target: the molecule itself

Binder | Kd [1] [nM] | stoichiometry N [2]
B1 | ~3000 | 
B2 | > 80000 | 
B3 |  | 6
